Laboratory results from patent US8703698B2, “Compositions and methods for treating atherosclerosis” (The University of Chicago, priority 2003, dated 2014).

Tests used:
[1] = tested on: THP-1 cells; assay: Cholesterol efflux from cholesterol-laden human THP-1 cells; type: cell-based; conditions: liposomal formulations; cholesterol-laden THP-1 cells differentiated with phorbol myristate acetate
Experimental: These monocytes were differentiated into macrophages with phorbol myristate acetate (100 nM). In these experiments, cholesterol-laden human THP-1 cells were exposed to liposomal formulations comprising a peptide corresponding to amino acids 1-20 of murine SAA2.1 (SEQ ID NO:1), a peptide corresponding to amino acids 74-103 of murine SAA2.1 (SEQ ID NO:4), a peptide corresponding to amino acids 1-20 of murine SAA1.1 plus an arginine at the N-terminus (SEQ ID NO:7), or a peptide corresponding to amino acids 1-20 of murine SAA2.1 (SEQ ID NO:1) and a peptide corresponding to amino acids 74-103 (SEQ ID NO:4) of murine SAA2.1. Results from these experiments are depicted in FIG. 4. […] Studies were carried out to determine whether murine SAA2.1 increases cholesterol export from a human derived monocytic cell line, THP-1 (obtained from American Type Culture Collection, Manassas, Va.; ATCC#TIB-202). Human monocytes were cultured in T-75 flasks with 30 ml RPMI 1640 medium containing 2 mM L-glutamine, 4.5 g/L glucose, 10 mM HEPES, 1.0 mM […] and supplemented with 0.05 mM 2-mercaptoethanol and 10% fetal bovine serum. Subsequently, five million cells were placed in each well of a 6-well tissue culture plate. The monocytes were differentiated into macrophages by treatment with phorbol myristate acetate (100 nM). THP-1 macrophages were enriched with cholesterol by incubating with red blood cells membrane fragments (175 μg as cholesterol) that had been previously labelled with 0.5 μCi/mL[^3H]-cholesterol at 37° C. for 6 hours in 0.2% bovine serum albumin, followed by an overnight equilibration period. Cells were washed four times with PBS/BSA prior to efflux studies. Cells were then incubated at 37° C. with 2 mL RPMI-BSA containing 5% LPDS and 50 μg/mL of either native HDL, SAA-HDL, liposomes containing 2 μmoles of apoA-I, SAA1.1 or 2.1, or liposomes containing 0.5 μmoles synthetic peptides corresponding to amino acid residues 1-20 (SEQ ID NO:1), 21-50 (SEQ ID NO:2), 51-80 (SEQ ID NO:3) or 74-103 (SEQ ID NO:4) of murine SAA2.1. The efflux media were collected at 0, 1, 2, 4, 8, 16 and 24 hours, centrifuged to remove cell debris, and then used to measure the exported counts. […] A portion of the cells was lysed in 0.1N NaOH to estimate both the remaining radioactivity and the cellular protein content. Cellular lipids were extracted from the remaining portion of the cells and analyzed by thin-layer chromatography as described by Mendez et al. (J. Clin. Invest. 1994 94:1698-1705) and Oram et al. (Arterioscler. Thromb. 1991 11:403-414). The radioactivity in appropriate spots was measured to determine total cellular cholesterol counts. Efflux of radioactive label to the medium was calculated as the percentage of total counts (cell+medium counts) in each well.

[2] = biological target: T1, acyl CoA:cholesterol acyl transferase (Mus musculus, UniProt Q61263); conditions: intact murine macrophages and post-nuclear homogenates; Ely et al. 2001; cited from earlier work
T1 construct: The relative activity of acyl CoA:cholesterol acyl transferase was determined in cholesterol-laden cells; host or cells: J774 mouse macrophages, cholesterol-loaded
T1 sequence (Q61263 1-540): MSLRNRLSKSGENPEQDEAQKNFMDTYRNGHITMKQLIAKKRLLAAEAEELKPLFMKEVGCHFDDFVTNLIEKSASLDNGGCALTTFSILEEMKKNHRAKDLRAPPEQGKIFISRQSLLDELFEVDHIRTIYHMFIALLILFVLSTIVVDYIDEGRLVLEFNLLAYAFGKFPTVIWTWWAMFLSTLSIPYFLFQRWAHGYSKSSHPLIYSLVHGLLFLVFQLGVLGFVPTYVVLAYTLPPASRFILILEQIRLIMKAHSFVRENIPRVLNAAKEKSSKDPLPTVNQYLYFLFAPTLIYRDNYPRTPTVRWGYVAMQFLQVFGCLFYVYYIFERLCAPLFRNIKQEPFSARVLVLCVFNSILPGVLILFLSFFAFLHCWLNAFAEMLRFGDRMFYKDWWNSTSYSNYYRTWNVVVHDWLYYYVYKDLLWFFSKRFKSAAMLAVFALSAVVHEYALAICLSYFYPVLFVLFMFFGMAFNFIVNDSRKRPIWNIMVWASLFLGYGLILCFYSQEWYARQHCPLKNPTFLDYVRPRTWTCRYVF

[3] = tested on: cholesterol ester hydrolase; assay: Rate of hydrolysis of cholesteryl ester in cholesterol-laden J774 cells (cholesterol ester hydrolase activity); type: cell-based, murine
Experimental: Identification of the domain of SAA2.1 that is responsible for enhancing cholesterol ester hydrolase activity was performed in J774 cells preloaded with radio-labeled cholesteryl esters. These experiments were performed in the presence of Sandoz 58-035, an inhibitor of acyl CoA:cholesterol acyl transferase activity, to prevent re-esterification of liberated cholesterol and [^14C]oleate. Incubations proceeded for times ranging from 0 to 24 hours, following which the remaining quantities of [^14C]-labeled cholesteryl oleate in cells were measured to determine the rate of hydrolysis of cholesteryl ester. […] However, an equivalent amount of liposomes containing the synthetic peptide corresponding to amino acid residues 74-103 of murine SAA2.1 caused a 3-fold increase in cholesterol ester hydrolase activity in these cholesterol-laden murine cells. Newly confluent J774 cells were labeled with [^14C]-oleate during cholesterol loading with red blood cell membranes as described above. Cells were then incubated for up to 24 hours with 2 mL of DMEM containing 5% LPDS and 50 μg/mL of either native HDL, SAA-HDL, liposomes containing 2 μmoles of apoA-1, SAA1.1 or 2.1, or liposomes containing 0.5:mol synthetic peptides corresponding to amino acid residues 1-20 (SEQ ID NO:1), 21-50 (SEQ ID NO:2), 51-80 (SEQ ID NO:3) and 74-103 (SEQ ID NO:4) of murine SAA2.1. To determine the rate of cholesteryl ester hydrolysis, 2 μg/mL of the acyl CoA:cholesterol acyl transferase inhibitor Sandoz 58-035 (propanimide, 3-(decyldimethylsilyl)-N-[2-(4-methylphenyl)-1-phenylethyl]-(9Cl) was added during incubation with lipoproteins or liposomes to prevent […] and free cholesterol. To examine whether or not the rate of cholesteryl ester hydrolysis involved the lysosomal cholesteryl ester hydrolase, the cells were cultured in the presence of 50 μg/mL of either native HDL and chloroquine or SAA-HDL and chloroquine (100:M). Chloroquine is an agent that neutralizes the lysosomal proton gradient. At various time points, cellular lipids were extracted and analyzed for cholesteryl ester radioactivity as described above.

[4] = biological target: T1, acyl CoA:cholesterol acyl transferase; assay: Incorporation of [14C]oleate into cholesteryl ester in cholesterol-laden macrophages (ACAT activity); type: cell-based, murine; conditions: lipoproteins or protein liposomes; tissue culture
Experimental: The incorporation of [^14C]oleate into cholesteryl ester was used as a measure of acyl CoA:cholesterol acyl transferase activity to identify compositions inhibiting the enzyme activity. The relative acyl CoA:cholesterol acyl transferase activity was determined in cholesterol-laden murine cells that had been cultured in medium in the absence of liposomes or in the presence of protein-free liposomes or liposomes containing 0.5 μM synthetic peptides corresponding to amino acids 1-20, 21-50, 51-80 and 74-103 of murine SAA2.1.
To load the cells with cholesterol, nearly confluent mono-layers were washed 3 times with phosphate buffered saline containing 2 mg/mL fatty acid-free bovine serum albumin (PBS-BSA) and incubated for 5 hours in DMEM supplemented with 5% lipoprotein-depleted serum (LPDS) (d>1.25 g/mL) and 175 μg of red blood cell membrane cholesterol. For the purpose of pool equilibration of added cholesterol, cell cultures were rinsed twice with PBS-BSA and incubated overnight in DMEM containing 5% LPDS. The relative activity of acyl CoA:cholesterol acyl transferase was determined in cholesterol-laden cells that had been cultured in medium containing no liposomes, protein-free liposomes or liposomes containing 0.5:M synthetic peptides corresponding to amino acid residues 1-20 (SEQ ID NO:1), 21-50 (SEQ ID NO:2), 51-80 (SEQ ID NO:3) or 74-103 (SEQ ID NO:4) of murine SAA2.1, respectively. Following 3 hours incubation with the above media, [^14C]-oleate was added and the cells were incubated for another 3 hour period (Mendez et al. J. Clin. Invest. 1994 94:1698-1705; Oram et al. Arterioscler. Thromb. 1991 11:403-414). Cells were chilled on ice and washed twice with PBS-BSA and twice with PBS. After addition of [^3H]-cholesteryl oleate (6000 dpm/well) as an internal standard, the lipids were extracted from the labeled cells and analyzed by thin-layer chromatography as described by Mendez et al. (J. Clin. Invest. 1994 94:1698-1705) and Oram et al. (Arterioscler. Thromb. 1991 11:403-414). The radioactivity in appropriate spots was measured to determine the incorporation of radioactivity into cholesteryl esters as a measure of acyl CoA:cholesterol acyl transferase activity.

[5] = tested on: J774 macrophages; assay: Cholesterol efflux from cholesterol-laden J774 macrophages to apolipoprotein liposomes with 8-bromo-cAMP or methyl-β-cyclodextrin; type: cell-based, mouse; conditions: 8-bromo-cAMP 0.3 mM, 12 hours; Sandoz 58-035 present
Description: The export process of cholesterol is coupled to the ATP binding cassette transporter (ABCA1) pathway. Lipid efflux to apolipoproteins has been shown previously to be stimulated by treatment of murine macrophages with cAMP analogues (Lin et al. 2002 Biochem Biophys Res. Commun. 290:663-669; Oram et al. 2000 J. Biol. Chem. 275:34508-34511). Also, the expression of ABCA1 is induced by cAMP treatment (Lin et al. 2002 Biochem Biophys Res. Commun. 290:663-669; Oram et al. 2000 J. Biol. Chem. 275:34508-34511). The inventors herein examined the effect of 8-bromo-cAMP (0.3 mM) on cholesterol efflux by liposomes containing various apolipoproteins when incubated with cholesterol-laden J774 macrophages. Such cells were pre-labeled with [^3H]-cholesterol in the presence of Sandoz 58-035, an ACAT inhibitor, to ensure that all of the radiolabeled cholesterol released from the cells was derived from the un-esterified cholesterol pool, and the cells were treated for 12 hours with 8-bromo-cAMP. This was followed by incubation with various acceptors. The fractional release of cellular labeled cholesterol was determined as a function of time.
To investigate whether an apolipoprotein free cholesterol acceptor such as cyclodextrin has the ability to catalyze the removal of cholesterol from macrophages, cholesterol-loaded and labeled J774 cells were incubated with liposomes and methyl-β-cyclodextrin (0.1 mM) (CD).
To examine whether cholesterol export from J774 cells to medium containing liposomes containing 2 μM murine apoA-1, SAA1.1 or SAA2.1 is a cAMP-dependent process, the radio-labeled cholesterol-laden cells were incubated overnight with 8-Br-cAMP (0.3 mM), prior to the addition of liposomes containing 2 μM murine apoA-1, SAA1.1 or SAA2.1 to the culture medium. Cholesterol efflux to the medium was then determined at the indicated time points as described above. Efflux of radioactive label to the medium was calculated as a percentage of total counts in each well.

[6] = biological target: T1, acyl CoA:cholesterol acyl transferase; assay: ACAT activity in macrophage post-nuclear homogenates; type: biochemical, murine; conditions: macrophage post-nuclear homogenates as enzyme source
Description: The in vitro effects of acute phase-HDL (AP-HDL;HDL-SAA) on acyl CoA:cholesterol acyl transferase and cholesterol ester hydrolase activities and on cellular cholesterol export were studied by the inventors using purified enzymes, cell homogenates, and whole cells. […] In contrast, murine SAA1.1 and apoA-1 had no effect. […] Using macrophages preloaded with radio-labeled cholesterol and injected intravenously into either inflamed or un-inflamed mice, it was shown that the inflamed mice, which have high SAA2.1 levels, effluxed cholesterol more rapidly and to a greater extent (6-fold greater) than their un-inflamed counterparts.

GFFSFIGEAFQGAGDMWRAY [SEQ ID NO:5, synthetic peptide, residues 1-20 of murine SAA1.1]
cholesterol efflux, time course (FIG. 4) [1]: inactive

GFFSFVHEAFQGAGDM [murine SAA2.11-16, 16-mer released by cyanogen bromide cleavage of murine SAA2.1, residues 1-16, reference compound]
macrophage ACAT activity [2]: profound effect inhibiting ACAT activity in a dose-dependent manner | effect on cholesterol ester hydrolase activity ([3]; fragment released by cyanogen bromide cleavage): produced no effect

RGFFSFIGEAFQGAGDMWRAY [SEQ ID NO:7, residues 1-20 of murine SAA1.1 plus an arginine at the N-terminus]
cholesterol efflux, time course (FIG. 4) [1]: effectively increased cholesterol efflux

B1: apoA-1: apolipoprotein isolated from acute phase murine plasma, reconstituted in liposomes (protein, UniProt Q00623 25-264, looked up)
Apolipoprotein A-I: DEPQSQWDKVKDFANVYVDAVKDSGRDYVSQFESSSLGQQLNLNLLENWDTLGSTVSQLQERLGPLTRDFWDNLEKETDWVRQEMNKDLEEVKQKVQPYLDEFQKKWKEDVELYRQKVAPLGAELQESARQKLQELQGRLSPVAEEFRDRMRTHVDSLRTQLAPHSEQMRESLAQRLAELKSNPTLNEYHTRAKTHLKTLGEKARPALEDLRHSLMPMLETLKTQVQSVIDKASETLTAQ
modifications: reconstituted in liposomes
acyl CoA:cholesterol acyl transferase activity in intact cholesterol-laden macrophages [4]: no effect on enzyme activities | increase in the initial rate of cholesterol efflux to liposomes after cAMP pre-treatment versus untreated cells [5]: 32.7% | cholesterol ester hydrolase activity in intact cholesterol-laden macrophages ([3]; lipoproteins or protein liposomes, tissue culture): no effect on enzyme activities | acyl CoA:cholesterol acyl transferase activity [6]: had no effect
